Results on 3 substances are retold here after article PMC11154707, “Polymer-based antibody mimetics (iBodies) target human PD-L1 and function as a potent immune checkpoint blocker” (The Journal of Biological Chemistry, 2024).

Assay [1] has as its target T1, PD-1/PD-L1 engagement (hPD-L1-overexpressing Raji B cells, hPD-1-overexpressing Jurkat T cells) (Homo sapiens, UniProt Q9NZQ7).
T1 construct: expressed in transfected cells; host or cells: Raji B cells (PD-L1) co-cultured with Jurkat T cells (PD-1)
Nature of the assay: IL-2 production in PD-L1 Raji B / PD-1 Jurkat T cell co-culture with SEE. Format: cell-based. Particulars: 25 pg/ml SEE, 24 h co-culture, IL-2 ELISA of supernatants; read-out: EC50 of restored T cell activation (IL-2). As to the method: (§1) B, PD-L1-overexpressing Raji B cells were pre-incubated with a dilution series of α-PD-L1 compounds in the presence of 25 pg/ml SEE for 1 h and then co-cultured in a 1:1 ratio with PD-1-overexpressing Jurkat T cells for 24 h. Supernatants were collected, and IL-2 levels were measured using ELISA. EC50 was calculated using a 4-parameter logistic function in GraphPad Prism 9.0.0. Data are representative of five independent experiments performed in duplicates, with error bars indicating the standard deviation. C, PD-L1-overexpressing Raji B cells were pre-incubated with 2 nM of α-PD-L1 compounds in the presence of 25 pg/ml SEE for 1 h and then co-cultured in a 1:1 ratio with PD-1-overexpressing Jurkat T cells for 18 h. Cells were collected and stained with BV421-conjugated anti-human CD69 antibody. […] Cells were measured with a BD LSRFortessa instrument (Fig. S9). Data are represented as median fluorescence intensity (MFI). Error bars indicate the standard deviation. D, histograms indicate the percentage of CD69-expressing cells (gated above the basal CD69 expression in the absence of SEE; no SEE). Data were analyzed with FlowJo 10.4.1 and are representative of three independent experiments performed in duplicates. MFI comparison was carried out using a one-way ANOVA test in GraphPad Prism 9.0.0. ∗∗ indicates p-value < 0.01; ns = not significant.
A general note: In an ELISA, binding on a coated surface is turned into a signal by an enzyme label.

The target in assay [2] is T1, PD-1/PD-L1 engagement (hPD-L1-overexpressing Raji B cells, hPD-1-overexpressing Jurkat T cells). The experiment in a line: Membrane CD69 expression in PD-L1 Raji B / PD-1 Jurkat T cell co-culture with SEE. The assay is classed as cell-based. Particulars: 2 nM compound, 18 h co-culture; for overall expression of CD69 compared with non-treated samples: MFI, one-way ANOVA; for % CD69 (percentage of CD69-expressing cells): gated above basal CD69 without SEE. As to the method:
as §1
Co-culture for analysis of CD69 expression was set up similarly as above, except that cells were incubated for 18 h in the presence of 2 nM of all compounds. Next, cells were collected by centrifugation (600g, 6 min) and washed once with 200 μl PBS. Corresponding wells were stained with 100 μl of 1:100 BV421-anti-human CD69 antibody (BD Biosciences, cat# 562884) or 100 ng/well isotype control antibody (BD Biosciences cat# 562438) in PBS for 30 min at 4 °C. Afterwards, cells were washed three times with 200 μl PBS followed by viability staining using 100 μl of 1:1000 Zombie NIR fixable viability kit (Biolegend, cat# 423106) in PBS. Finally, the measurement was carried out on an LSRFortessa Flow Cytometer (Becton, Dickinson and Company) and analyzed with FlowJo 10.4.1. The cell population was gated based on their forward and side scatter properties, followed by gating for single and viable cells. The Gating strategy is explained in the Fig. S9.

Assay [3] has as its target PD-L1. The conditions noted are these: read-out: published Kd; cited from earlier work.
The subject of assay [4] is PD-L1. Set-up: method as in http://en.atagenix.com/product_detail-23647.html, 30. The conditions noted are these: indirect ELISA; ref http://en.atagenix.com/product_detail-23647.html, 30; read-out: published EC50, indirect ELISA; cited from earlier work.

T1 sequence (Q9NZQ7 19-290): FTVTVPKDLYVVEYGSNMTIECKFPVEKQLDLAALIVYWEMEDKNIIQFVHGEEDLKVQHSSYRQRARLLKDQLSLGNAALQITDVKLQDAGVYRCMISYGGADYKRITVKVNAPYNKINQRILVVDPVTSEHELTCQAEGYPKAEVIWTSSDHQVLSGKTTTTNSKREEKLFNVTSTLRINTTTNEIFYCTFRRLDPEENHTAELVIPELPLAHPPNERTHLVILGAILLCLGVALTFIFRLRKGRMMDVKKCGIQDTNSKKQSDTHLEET

One may read the EC50 as the concentration giving half of the maximal effect. Turning to “atezolizumab: FDA-approved PD-L1-targeting monoclonal antibody”, the EC50 in assay [1] worked out at 0.3 nM. For the same substance, in assay [2], the “overall expression of CD69 compared with non-treated samples” value is “substantial increase” and the “% CD69 (percentage of CD69-expressing cells)” value was determined as 33±4%.
Broadly, the Kd is the constant that tells how readily two partners part at equilibrium. Regarding “avelumab: FDA-approved PD-L1-targeting monoclonal antibody”, the Kd on PD-L1 [3] is 0.04 nM.
On to “durvalumab: FDA-approved PD-L1-targeting monoclonal antibody”, for which the 50% effective concentration (EC50) with PD-L1 [4] is about 0.32 nM. Also, the EC50 in assay [1] turned out to be 0.6 nM. In assay [2], the “overall expression of CD69 compared with non-treated samples” value was “substantial increase” and the “% CD69 (percentage of CD69-expressing cells)” value stood at 36±1%.
